{"source": "paper PMC2732195", "target": "wild type presenilin 1 (PS1) (UniProt P49768)", "assay": "FRET or BRET"}
{"substance": "wild type human APP C99 (from UniProt P05067 672-770) (domain or fragment)", "values": [{"measurement": "Alexa 430 donor lifetime (FRET)", "value": 1230, "unit": "ps"}, {"measurement": "Alexa 488 donor lifetime (FLIM), average per cell", "value": 1890, "unit": "ps"}, {"measurement": "Alexa 488 donor lifetime (FLIM), cell interior", "value": 2090, "unit": "ps"}, {"measurement": "Alexa 488 donor lifetime (FLIM), cell periphery", "value": 1420, "unit": "ps"}, {"measurement": "FRET strength normalized to WT APP (normalized to WT APP)", "value": 100}]}
